Results published in patent publication US20230272088A1 (SYNTHEKINE, published 2023).

Key:
[1] = target: T1, extracellular domain of mIFNGR1 (mouse, UniProt P15261 26-254, conjugated to Alexa647 (site not stated)); assay: flow cytometry
T1 construct: Origin and tags of the murine antigen are not described; UniProt P15261 residues 26-254; also called mIFNGR1-ECD; murine IFNGR1 ECD
T1 sequence: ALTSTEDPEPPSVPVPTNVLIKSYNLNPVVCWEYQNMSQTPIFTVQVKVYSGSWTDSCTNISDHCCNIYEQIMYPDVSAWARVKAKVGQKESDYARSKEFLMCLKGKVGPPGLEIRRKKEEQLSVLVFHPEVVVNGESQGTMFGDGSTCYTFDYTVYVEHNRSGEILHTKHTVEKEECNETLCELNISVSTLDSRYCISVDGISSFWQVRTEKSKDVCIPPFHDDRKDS

[2] = target: T2, extracellular domain of hIFNGR1 (human, UniProt P15260 18-245, conjugated to Alexa647 (site not stated)); assay: flow cytometry
T2 construct: UniProt P15260 residues 18-245; also called hIFNGR1-ECD; human IFNGR1 ECD
T2 sequence: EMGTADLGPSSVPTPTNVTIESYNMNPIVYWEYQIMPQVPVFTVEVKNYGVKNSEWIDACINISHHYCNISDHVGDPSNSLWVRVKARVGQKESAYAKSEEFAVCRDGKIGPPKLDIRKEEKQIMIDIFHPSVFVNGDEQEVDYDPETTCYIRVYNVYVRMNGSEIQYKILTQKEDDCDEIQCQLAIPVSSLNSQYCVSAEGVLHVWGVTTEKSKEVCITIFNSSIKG

B1: DR908 (VHH)
VHH: EVQLVESGGGLVQAGGSLRVTCAASGRTFTSLAMGWFRQAPGKEREFVAAISRSGGSTDYADSVKGRFFISRDNAKSTLYLQMSSLKPEDTAVYYCAARDYSTLQYYNEYEYSDWGQGTQVTVSS
notes: also called anti-IFNGR1 sdAb VHH DR908
Question: Does B1 bind [1]?
Answer: Result: binds

Question: Does B1 bind [2]?
Answer: Result: binds
